T1: soluble recombinant human IL-6 receptor (SR344) (human, UniProt P08887 20-344)
T1 construct: range 1-344; also called soluble IL-6 receptor; soluble human IL-6 receptor
T1 sequence (looked up): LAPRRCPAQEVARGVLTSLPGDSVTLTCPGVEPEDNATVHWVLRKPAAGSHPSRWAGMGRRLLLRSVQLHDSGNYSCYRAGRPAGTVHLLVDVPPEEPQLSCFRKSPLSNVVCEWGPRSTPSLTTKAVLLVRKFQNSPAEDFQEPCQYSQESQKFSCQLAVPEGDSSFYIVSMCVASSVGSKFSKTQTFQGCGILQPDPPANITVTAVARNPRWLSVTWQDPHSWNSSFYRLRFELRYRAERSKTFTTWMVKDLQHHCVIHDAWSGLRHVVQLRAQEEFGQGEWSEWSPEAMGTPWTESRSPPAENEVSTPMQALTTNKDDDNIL


Experiments:
[1] = target: T1, soluble recombinant human IL-6 receptor …; test: SPR Biacore T100, 37 C; biotinylated SR344 immobilised via streptavidin as membrane-type IL-6 receptor; ratio of dissociation rates
Description: (§1) The binding to membrane-type IL-6 receptor was assessed by evaluating the binding to soluble human IL-6 receptor immobilized onto the sensor chip. SR344 was biotinylated by a method known to those skilled in the art. Based on the affinity between biotin and streptavidin, biotinylated soluble human IL-6 receptor was immobilized onto the sensor chip via streptavidin. All measurements were conducted at 37° C. The mobile phase buffer was 10 mM MES (pH 5.8), 150 mM NaCl, and 0.05% Tween 20. […] The dissociation rate constant (kd (1/s)) at pH 5.8 was calculated using Biacore T100 Evaluation Software (GE Healthcare) by fitting only the dissociation phase at pH 5.8. The sample concentration was 0.25 pg/ml. Binding was carried out in 10 mM MES (pH 7.4), 150 mM NaCl, and 0.05% Tween 20, and dissociation was carried out in 10 mM MES (pH 5.8), 150 mM NaCl, and 0.05% Tween 20. Likewise, the dissociation rate constant (kd (1/s)) at pH 7.4 was calculated using Biacore T100 Evaluation Software (GE Healthcare) by fitting only the dissociation phase at pH 7.4. The sample concentration was 0.5 pg/ml. Binding was carried out in 10 mM MES (pH 7.4), 150 mM NaCl, and 0.05% Tween 20, and dissociation was carried out in 10 mM MES (pH 7.4), 150 mM NaCl, and 0.05% Tween 20.

[2] = target: T1, soluble recombinant human IL-6 receptor …; test: SPR Biacore T100; immobilised biotinylated SR344 as membrane-type IL-6 receptor; against TOCILIZUMAB
Description: as §1

Binder	kd(pH 5.8)/kd(pH 7.4) pH … [1]	fold increase of pH dependence of the dissociation rate against TOCILIZUMAB [2] [times]	fold improvement of pH dependency of the dissociation rate against TOCILIZUMAB [2] [times]
H3pI/L73 (antibody, human IgG1, kappa, V domains shown, also called H3pI-IgG1/L73-kappa) VH: QVQLQESGPGLVKPSETLSLTCAVSGHSISHDHAHSWVRQPPGEGLEWIGYISYSGITNYNPSLKGRVTISRDTSKNQFSLKLSSVTAADTAAYYCARSLARTTAMDYWGEGTLVTVSS VL: DIQMTQSPSSLSASVGDSVTITCQASQHISSHLNWYQQKPGKAPELLIYYGSHLHSGVPSRFSGSGSGTDFTFTISSLEAEDAATYYCGQGNRLPYTFGQGTKVEIER		~2.6	
Fv3-M73 (antibody, V domains shown, Fully humanized IL-6 receptor antibody; also called VH4-M73/VL1-kappa) VH: QVQLQESGPGLVKPSETLSLTCAVSGHSISHDHAWSWVRQPPGEGLEWIGFISYSGITNYNPTLQGRVTISRDNSKNTLYLQMNSLRAEDTAVYYCARSLARTTAMDYWGEGTLVTVSS VL: DIQMTQSPSSLSASVGDSVTITCQASRDISSHLNWYQQKPGKAPELLIYYGSHLLSGVPSRFSGSGSGTDFTFTISSLEAEDAATYYCGQGNRLPYTFGQGTKVEIER	10.9		~11

Next, values leading:

kd(pH 5.8)/kd(pH 7.4) pH … [1]	fold increase of pH dependence of the dissociation rate against TOCILIZUMAB [2] [times]	fold improvement of pH dependency of the dissociation rate against TOCILIZUMAB [2] [times]	Binder
1			TOCILIZUMAB (antibody, human IgG1, kappa, Humanized anti-IL-6 receptor IgG1 antibody; H chain WT-IgG1, L chain WT-kappa; also called TOCILIZUMAB-IgG1; WT-IgG1/WT-kappa) heavy: not shown light: not shown
10.1		~10	Fv4-M73 (antibody, V domains shown, Fully humanized IL-6 receptor antibody; also called VH3-M73/VL3-kappa) VH: QVQLQESGPGLVKPSETLSLTCAVSGHSISHDHAWSWVRQPPGEGLEWIGFISYSGITNYNPSLQGRVTISRDNSKNTLYLQMNSLRAEDTAVYYCARSLARTTAMDYWGEGTLVTVSS VL: DIQMTQSPSSLSASVGDSVTITCQASTDISSHLNWYQQKPGKAPELLIYYGSHLLSGVPSRFSGSGSGTDFTFTISSLEAEDAATYYCGQGNRLPYTFGQGTKVEIER
